The supplement of paper PMC7877785
± gives the uncertainty stated by the source.

Assay: self-splicing fitness, log relative to wild type (ln ratio); higher = more splicing; Tetrahymena group I intron in knt gene, E. coli kanamycin selection, DiMSum; sequences stand for … in CUCUCU…GGAGGGAAAAGUUAUCAGGCAUGCACCUGGUAGCUAGUCUUUAAACCAAUAGAUUGCAUCGGUUUAAAAGGCAAGACCGUCAAAUUGCGGGAAAGGGGUCAACAGCCGUUCAGUACCAAGUCUCAGGGGAAACUUUGAGAUGGCCUUGCAAAGGGUAUGGUAAUAAGCUGACGGACAUGGUCCUAACCACGCAGCCAAGUCCUAAGUCAACAGAUCUUCUGUUGAUAUGGAUGCAGUUCACAGACUAAAUGUCGGUCGGGGAAGAUGUAUUCUUCUCAUAAGAUAUAGUCGGACCUCUCCUUAAUGGGAGCUAGCGGAUGAAGUGAUGCAACACUGGAGCCGCUGGGAACUAAUUUGUAUGCGAAAGUAUAUUGAUUAGUUUUGGAGUACUCGUGGUCG
In short: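 Fitness was computed with DiMSum as the error-weighted combination of replicate fold changes, kanamycin versus none, each normalised to wild type. The library randomised all eight intron nucleotides of the P1ex region, with the intron placed in the knt kanamycin-resistance gene on pET-22b(+) in E. coli BL21(DE3). Six replicate transformations were grown overnight at 37°C or 30°C on LB agar with or without 25 μg/mL kanamycin, plus 100 μg/mL carbenicillin, 50 μM IPTG and 0.2% rhamnose. Pooled colonies were amplicon-sequenced on an Illumina HiSeq 2500.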

Row | Sequence | self-splicing fitness (ln) (30 °C) | self-splicing fitness (ln) (37 °C)
1 | GCCUAGCAAUAUUACGGGGG | -2.92 ± 0.22 | -1.34 ± 0.13
2 | GCCUAGCAAUAUUACGGUAG | -3.79 ± 0.18 | -2.99 ± 0.27
3 | GCCUAGCAAUAUUACGUCAU | -2.73 ± 0.2 | -1.4 ± 0.17
4 | GCCUAGCAAUAUUACGUCCU | -1.68 ± 0.068 | -0.494 ± 0.096
5 | GCCUAGCAAUAUUACGUCGA | -1.67 ± 0.17 | -1.6 ± 0.21
6 | GCCUAGCAAUAUUACGUGGG | -4.52 ± 0.23 | -3.36 ± 0.3
7 | GCCUAGCAAUAUUACGUGUC | -1.13 ± 0.056 | -0.843 ± 0.058
8 | GCGAAGCAAUAUUACGAAAA | -3.24 ± 0.43 | –
9 | GCGAAGCAAUAUUACGAAAU | -3.46 ± 0.35 | -1.07 ± 0.22
10 | GCGAAGCAAUAUUACGAACA | -1.49 ± 0.34 | -1.16 ± 0.29
11 | GCGAAGCAAUAUUACGAGCG | -2.04 ± 0.14 | -1.11 ± 0.19
12 | GCGAAGCAAUAUUACGAGGA | – | -1.58 ± 0.31
13 | GCGAAGCAAUAUUACGAUUU | -1.09 ± 0.057 | -0.156 ± 0.075
14 | GCGAAGCAAUAUUACGCAAG | -2.51 ± 0.42 | –
15 | GCGAAGCAAUAUUACGCACU | -1.72 ± 0.18 | -0.633 ± 0.21
16 | GCGAAGCAAUAUUACGCAUC | -4.03 ± 0.44 | -1.78 ± 0.23
17 | GCGAAGCAAUAUUACGCAUG | -3.12 ± 0.44 | -2.76 ± 0.24
18 | GCGAAGCAAUAUUACGCCAC | – | -2.24 ± 0.42
19 | GCGAAGCAAUAUUACGCCUU | – | -1.5 ± 0.26
20 | GCGAAGCAAUAUUACGCUAU | -2.45 ± 0.1 | -1.25 ± 0.11
21 | GCGAAGCAAUAUUACGGAAU | -3.17 ± 0.13 | -1.73 ± 0.13
22 | GCGAAGCAAUAUUACGGAGC | -2.69 ± 0.16 | -2.52 ± 0.21
23 | GCGAAGCAAUAUUACGGCCA | -0.992 ± 0.092 | -0.821 ± 0.1
24 | GCGAAGCAAUAUUACGGGAG | -3.05 ± 0.17 | -2.62 ± 0.22
25 | GCGAAGCAAUAUUACGGGGU | -3.89 ± 0.34 | -2.89 ± 0.29

Row | Sequence | self-splicing fitness (ln) (30 °C) | self-splicing fitness (ln) (37 °C)
26 | GCGAAGCAAUAUUACGGUCG | -3.65 ± 0.32 | -2.77 ± 0.4
27 | GCGAAGCAAUAUUACGGUUG | -1.54 ± 0.11 | -1.9 ± 0.15
28 | GCGAAGCAAUAUUACGUCGA | -2.01 ± 0.1 | -0.792 ± 0.094
29 | GCGAAGCAAUAUUACGUGCC | -3.73 ± 0.18 | -3 ± 0.23
30 | GCGAAGCAAUAUUACGUUAG | -2.77 ± 0.12 | -2.35 ± 0.15
31 | GCGCAGCAAUAUUACGAAAG | -2.66 ± 0.16 | -1.68 ± 0.14
32 | GCGCAGCAAUAUUACGAAGG | -1.79 ± 0.087 | -0.733 ± 0.12
33 | GCGCAGCAAUAUUACGACAA | -0.598 ± 0.12 | -0.342 ± 0.11
34 | GCGCAGCAAUAUUACGACUC | -0.32 ± 0.17 | 0.304 ± 0.15
35 | GCGCAGCAAUAUUACGACUG | -1.91 ± 0.12 | -1.98 ± 0.23
36 | GCGCAGCAAUAUUACGAGUG | -1.6 ± 0.1 | -1.47 ± 0.15
37 | GCGCAGCAAUAUUACGCAGC | – | -1.32 ± 0.33
38 | GCGCAGCAAUAUUACGCCAC | – | -1.17 ± 0.36
39 | GCGCAGCAAUAUUACGCCCG | -1.59 ± 0.2 | 0.0341 ± 0.27
40 | GCGCAGCAAUAUUACGCCGU | -1.57 ± 0.13 | -2.07 ± 0.27
41 | GCGCAGCAAUAUUACGCCUG | -2.75 ± 0.15 | -1.48 ± 0.15
42 | GCGCAGCAAUAUUACGCGCA | -4.09 ± 0.32 | 0.322 ± 0.13
43 | GCGCAGCAAUAUUACGCUAU | -0.914 ± 0.096 | -0.406 ± 0.12
44 | GCGCAGCAAUAUUACGCUGA | -1.16 ± 0.12 | -0.667 ± 0.1
45 | GCGCAGCAAUAUUACGGAAU | -1.12 ± 0.13 | -0.337 ± 0.15
46 | GCGCAGCAAUAUUACGGACU | -0.744 ± 0.12 | -0.35 ± 0.12
47 | GCGCAGCAAUAUUACGGAGA | -4.36 ± 0.42 | -1.69 ± 0.19
48 | GCGCAGCAAUAUUACGGCUG | -3.01 ± 0.3 | -1.7 ± 0.29
49 | GCGCAGCAAUAUUACGGGCG | -3.71 ± 0.47 | -3.03 ± 0.4
50 | GCGCAGCAAUAUUACGGUGA | -0.545 ± 0.066 | -0.107 ± 0.086

Row | Sequence | self-splicing fitness (ln) (30 °C) | self-splicing fitness (ln) (37 °C)
51 | GCGCAGCAAUAUUACGUAAU | -0.192 ± 0.061 | 0.31 ± 0.07
52 | GCGCAGCAAUAUUACGUACC | -1.63 ± 0.11 | -0.655 ± 0.13
53 | GCGCAGCAAUAUUACGUACG | -3.47 ± 0.2 | -1.09 ± 0.16
54 | GCGCAGCAAUAUUACGUAUA | -1.31 ± 0.06 | -1.05 ± 0.081
55 | GCGCAGCAAUAUUACGUCGU | -3.02 ± 0.12 | -2.75 ± 0.18
56 | GCGCAGCAAUAUUACGUCUU | -0.65 ± 0.049 | 0.336 ± 0.064
57 | GCGCAGCAAUAUUACGUGAU | -0.659 ± 0.063 | 0.488 ± 0.083
58 | GCGCAGCAAUAUUACGUGGU | -2.14 ± 0.081 | -1.02 ± 0.086
59 | GCGCAGCAAUAUUACGUUUU | -0.735 ± 0.049 | -0.277 ± 0.063
60 | GCGGAGCAAUAUUACGAACG | -3.06 ± 0.29 | -2.41 ± 0.23
61 | GCGGAGCAAUAUUACGACGU | -4.57 ± 0.46 | -2.5 ± 0.3
62 | GCGGAGCAAUAUUACGACUC | -2.06 ± 0.25 | -0.372 ± 0.34
63 | GCGGAGCAAUAUUACGAGGA | -2.26 ± 0.47 | -2.66 ± 0.37
64 | GCGGAGCAAUAUUACGCCAA | -2.32 ± 0.44 | –
65 | GCGGAGCAAUAUUACGCGGC | -3.04 ± 0.48 | –
66 | GCGGAGCAAUAUUACGGAUG | -3.28 ± 0.17 | -1.67 ± 0.22
67 | GCGGAGCAAUAUUACGGCGA | -1.5 ± 0.23 | -1.29 ± 0.28
68 | GCGGAGCAAUAUUACGGGAU | 0.0919 ± 0.27 | –
69 | GCGGAGCAAUAUUACGGGGU | -1.55 ± 0.23 | –
70 | GCGGAGCAAUAUUACGUAGC | -1.91 ± 0.28 | -2.38 ± 0.41
71 | GCGGAGCAAUAUUACGUCUC | – | -2.54 ± 0.38
72 | GCGGAGCAAUAUUACGUGGU | -3.54 ± 0.26 | -3.01 ± 0.4
73 | GCGGAGCAAUAUUACGUGUC | -2.84 ± 0.3 | -1.06 ± 0.43
74 | GCGUAGCAAUAUUACGAAAU | -2.16 ± 0.29 | -0.358 ± 0.24
75 | GCGUAGCAAUAUUACGAAGU | -2.22 ± 0.15 | -1.11 ± 0.16

Row | Sequence | self-splicing fitness (ln) (30 °C) | self-splicing fitness (ln) (37 °C)
76 | GCGUAGCAAUAUUACGACGC | -3.7 ± 0.39 | –
77 | GCGUAGCAAUAUUACGCAUC | -3.37 ± 0.5 | -1 ± 0.4
78 | GCGUAGCAAUAUUACGCCGA | – | -2.28 ± 0.47
79 | GCGUAGCAAUAUUACGCUCC | -1.88 ± 0.2 | -0.401 ± 0.39
80 | GCGUAGCAAUAUUACGGACA | -1.31 ± 0.17 | -0.534 ± 0.13
81 | GCGUAGCAAUAUUACGGCCA | – | 0.769 ± 0.3
82 | GCGUAGCAAUAUUACGGGAA | -1.38 ± 0.27 | -1.44 ± 0.34
83 | GCGUAGCAAUAUUACGGGCA | -0.858 ± 0.2 | -0.854 ± 0.17
84 | GCGUAGCAAUAUUACGGUAU | -2.03 ± 0.077 | -0.828 ± 0.1
85 | GCGUAGCAAUAUUACGUACA | -1.1 ± 0.16 | -1.23 ± 0.14
86 | GCGUAGCAAUAUUACGUAGU | -2.27 ± 0.21 | -0.677 ± 0.14
87 | GCGUAGCAAUAUUACGUCAU | -3.22 ± 0.26 | -2.25 ± 0.3
88 | GCGUAGCAAUAUUACGUCGG | -2.69 ± 0.21 | -3.18 ± 0.24
89 | GCGUAGCAAUAUUACGUGAC | -2.29 ± 0.29 | -1.15 ± 0.28
90 | GCGUAGCAAUAUUACGUGCA | -1.53 ± 0.12 | -1.02 ± 0.13
91 | GCGUAGCAAUAUUACGUGCU | -2.05 ± 0.16 | -2.44 ± 0.27
92 | GCGUAGCAAUAUUACGUGGA | -3.68 ± 0.48 | -2.23 ± 0.38
93 | GCGUAGCAAUAUUACGUGUA | -3.63 ± 0.21 | -2.43 ± 0.12
94 | GCGUAGCAAUAUUACGUUCC | – | -2.36 ± 0.49
95 | GCGUAGCAAUAUUACGUUGA | -3.16 ± 0.33 | -1.94 ± 0.21
96 | GCGUAGCAAUAUUACGUUUG | -3.14 ± 0.21 | -1.37 ± 0.15
97 | GCUAAGCAAUAUUACGACAG | -2.67 ± 0.17 | -2.51 ± 0.32
98 | GCUAAGCAAUAUUACGAUGC | -3.28 ± 0.19 | -2.18 ± 0.18
99 | GCUAAGCAAUAUUACGAUUC | -0.0116 ± 0.081 | -0.128 ± 0.092
100 | GCUAAGCAAUAUUACGCACG | -1.84 ± 0.14 | -0.0584 ± 0.14
